{"source": "paper PMC6938701", "about": "(Science Advances, 2020)", "proteins": {"B1": {"name": "Recombinant human Prx2 (peroxiredoxin 2) (enzyme, UniProt P32119 2-198, looked up)", "chain": "ASGNARIGKPAPDFKATAVVDGAFKEVKLSDYKGKYVVLFFYPLDFTFVCPTEIIAFSNRAEDFRKLGCEVLGVSVDSQFTHLAWINTPRKEGGLGPLNIPLLADVTRRLSEDYGVLKTDEGIAYRGLFIIDGKGVLRQITVNDLPVGRSVDEALRLVQAFQYTDEHGEVCPAGWKPGSDTIKPNVDDSKEYFSKHN"}}, "molecular_target": "the molecule itself", "test": "non-reducing SDS-PAGE with Western blot", "data": [{"protein": "B1", "values": [{"measurement": "stoichiometry N", "result": 2}]}]}
